Source: publication PMC3422348

Biological target: Cdc37 (Cell division cycle protein 37) (human (endogenous in MDA-MB-453 and MDA-MB-231)) (UniProt Q16543)
Assay: co-IP; membrane fractions of MDA-MB-453 and MDA-MB-231 cells immunoprecipitated with anti-Cdc37 (18 h, 4°C, protein G-Sepharose), Western blot with anti-HSP90, anti-HER2, anti-EGFR; cells cultured in control medium or with 200 µg/ml anti-Cdc37 or 200 µg/ml mAb 4C5 for 16 h; densitometry

UniProt Q16543, sequence (Q16543 whole entry): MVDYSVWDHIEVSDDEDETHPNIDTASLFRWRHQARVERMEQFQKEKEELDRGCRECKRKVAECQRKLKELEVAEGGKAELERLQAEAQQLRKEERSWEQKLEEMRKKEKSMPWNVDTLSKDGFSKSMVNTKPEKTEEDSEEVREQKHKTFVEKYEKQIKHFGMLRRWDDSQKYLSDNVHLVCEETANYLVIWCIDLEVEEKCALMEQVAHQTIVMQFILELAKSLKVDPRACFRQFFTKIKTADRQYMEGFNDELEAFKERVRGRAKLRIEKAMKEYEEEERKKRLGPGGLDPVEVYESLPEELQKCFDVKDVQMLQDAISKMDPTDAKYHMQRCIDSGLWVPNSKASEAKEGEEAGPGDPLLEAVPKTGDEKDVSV

## HSP90 (from UniProt P07900 1-732) (natural protein)
  percent decrease of the co-precipitate with 200 µg/ml anti-Cdc37 in the medium (MDA-MB 231): 56%
  percent decrease of the co-precipitate with 200 µg/ml anti-Cdc37 in the medium (MDA-MB 453): 33%
  percent decrease of the co-precipitate with 200 µg/ml mAb 4C5 in the medium (MDA-MB 231): 88%
  percent decrease of the co-precipitate with 200 µg/ml mAb 4C5 in the medium (MDA-MB 453): 60%
